Assay [1] addresses membrane-bound endogenous human CEACAM5 and CEACAM6 on BxPC3 cells. As to the kind of experiment: flow cytometry on BxPC3 cells with against without 100 nM soluble CEACAM6. (Flow cytometry measures light scatter and fluorescence of single cells or particles in a stream.)
Assay [2] deals with membrane-bound endogenous human CEACAM5 and CEACAM6 on LS 174T cells. Description: flow cytometry on LS174T cells with against without 100 nM soluble CEACAM6.
The target of assay [3] is membrane-bound endogenous human CEACAM5 and CEACAM6 on A549 cells. As to the kind of experiment: flow cytometry on A549 cells (printed over the panel: CEACAM5-, CEACAM6+), MFI.

B1: PR303563 (Tinurilimab) (antibody, human IgG2, kappa, V domains shown)
VH: QVTLRESGPALVKPTQTLTLTCTFSGFSLSTYGIGVGWIRQPPGKALEWLAHIWWNDNKYYSTSLKTRLTISKDTSKNQVVLTMTNMDPVDTATYYCARISLPYFDYWGQGTTLTVSS
VL: DIQLTQSPSFLSASVGDRVTITCKASQNVGTAVAWYQQKPGKAPKLLIYSASNRYTGVPSRFSGSGSGTEFTLTISSLQPEDFATYYCQQYSSYPLTFGGGTKVEIKR
With B1, the fold change of EC50 at the presence of 100 nM soluble protein in assay [1] amounted to 4.1 fold; in assay [2], 6.9 fold. In assay [3], this molecule had an EC50 (read off the curve) of 0.1 nM.

One may read the EC50 (read off the curve) as the midpoint of the concentration-response curve.

The values are drawn from patent US20260258125A1.
